{"source": "paper PMC2719619", "about": "“Efficient, chemoselective synthesis of immunomicelles using single-domain antibodies with a C-terminal thioester” (BMC Biotechnology, 2009)", "key": {"[1]": {"molecular_target": "T1, Glutathione-S-transferase from Schistosoma japonicum (Schistosoma japonicum, UniProt P08515 = GST)", "T1 construct": "GST of Schistosoma japonicum (printed as 'glutathione-S from Schistosoma japonicum'); recombinant from the vector pGEX-4T-2 in the selection; GST from pGEX-4T-2 would carry some residues of the vector's linker at its C-terminus; also called GST", "T1 sequence (P08515 whole entry, looked up)": "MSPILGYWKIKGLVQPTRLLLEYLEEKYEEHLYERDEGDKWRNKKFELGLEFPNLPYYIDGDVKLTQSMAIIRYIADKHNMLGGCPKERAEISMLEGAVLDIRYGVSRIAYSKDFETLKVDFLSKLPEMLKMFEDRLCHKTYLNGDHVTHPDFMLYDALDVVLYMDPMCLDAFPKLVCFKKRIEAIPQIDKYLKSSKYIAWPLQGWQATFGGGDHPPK", "assay": "ELISA", "conditions": "both partners purified"}, "[2]": {"molecular_target": "T1, Glutathione-S-transferase from …", "assay": "SPR; GST immobilised on a CM5 chip by EDC/NHS (160 RU), 0-500 nM sdAb injected, 25°C, PBS with 0.05% Tween-20, 30 μL/min; steady state responses fitted to a one-site binding model; apparent", "conditions": "both partners purified"}}, "data": [{"binder": "sdAb-aGST-MESNA (llama single-domain antibody against GST with a C-terminal MESNA thioester) (VHH, llama single-domain antibody from a naive phage display library, clone C11 of vector pHENIX sdAb-α GST C11; A mix of species that differ in how much of the pelB leader is left (LC-MS: calcd. 19632, 19501, 18175, 18062 Da); One conserved disulfide bond; also called sdAb-α GST-MESNA; sdAb-GST; source: E. coli BL21 (DE3), pTXB1, periplasm; purified on a chitin column, cleaved from the intein with …) VHH: QVQLQDSGGGIVQPGGSLRLSCAGSGFSLDHYAIGWFRQAPGKRRELVASITSGGTIRYADSVKDRFTISRDNAKNRVYLQMNSLKPEDTAVYYCSARAKFSTSYDYWGQGTQVTVSS", "values": [{"measurement": "Kd", "setting": "[1]", "value": 77, "unit": "nM"}, {"measurement": "Kd", "setting": "[2]", "value": 116, "unit": "nM"}]}]}
